# Source: patent US20090192084A1 (CALIFORNIA INSTITUTE OF TECHNOLOGY, published 2009)
# T1: Ubiquitin conjugation factor E4 B, UBE4B (Ufd2ortholog) (human, UniProt O95155 1-1302)
# T1 sequence (looked up): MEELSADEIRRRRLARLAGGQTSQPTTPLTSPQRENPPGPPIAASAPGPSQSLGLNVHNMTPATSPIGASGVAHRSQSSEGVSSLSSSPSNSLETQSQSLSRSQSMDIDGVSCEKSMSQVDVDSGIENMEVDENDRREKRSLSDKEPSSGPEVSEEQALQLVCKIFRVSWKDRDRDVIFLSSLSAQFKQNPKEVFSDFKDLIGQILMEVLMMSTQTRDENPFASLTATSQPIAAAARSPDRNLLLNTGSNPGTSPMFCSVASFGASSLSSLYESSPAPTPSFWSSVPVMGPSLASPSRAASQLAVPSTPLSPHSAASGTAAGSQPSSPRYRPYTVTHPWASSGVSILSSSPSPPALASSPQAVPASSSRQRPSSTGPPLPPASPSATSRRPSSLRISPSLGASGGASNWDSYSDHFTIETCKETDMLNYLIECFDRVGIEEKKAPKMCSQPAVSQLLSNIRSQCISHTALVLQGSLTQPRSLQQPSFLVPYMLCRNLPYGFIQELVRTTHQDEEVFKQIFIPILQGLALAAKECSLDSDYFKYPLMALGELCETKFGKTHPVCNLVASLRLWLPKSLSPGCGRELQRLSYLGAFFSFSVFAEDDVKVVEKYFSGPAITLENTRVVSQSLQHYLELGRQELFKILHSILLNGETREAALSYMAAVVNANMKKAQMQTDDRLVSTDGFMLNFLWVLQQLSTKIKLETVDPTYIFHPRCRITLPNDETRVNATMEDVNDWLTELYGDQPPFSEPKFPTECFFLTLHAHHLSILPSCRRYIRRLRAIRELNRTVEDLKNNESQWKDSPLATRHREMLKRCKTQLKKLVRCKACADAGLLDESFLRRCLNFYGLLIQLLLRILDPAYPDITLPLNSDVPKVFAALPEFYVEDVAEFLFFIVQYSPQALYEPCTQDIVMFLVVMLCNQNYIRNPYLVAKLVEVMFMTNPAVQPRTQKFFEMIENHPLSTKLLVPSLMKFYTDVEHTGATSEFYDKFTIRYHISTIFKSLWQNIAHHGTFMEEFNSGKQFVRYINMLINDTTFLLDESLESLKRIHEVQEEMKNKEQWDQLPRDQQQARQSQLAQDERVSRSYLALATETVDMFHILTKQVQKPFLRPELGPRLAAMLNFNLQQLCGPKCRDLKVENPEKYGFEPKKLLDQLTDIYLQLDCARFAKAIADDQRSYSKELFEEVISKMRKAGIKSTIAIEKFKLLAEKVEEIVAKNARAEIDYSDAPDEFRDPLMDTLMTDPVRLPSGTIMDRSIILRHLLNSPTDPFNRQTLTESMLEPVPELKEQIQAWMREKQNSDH
# B1: Flag-UBXD8 (other, UniProt Q96CS3 1-445, looked up)
# chain: MAAPEERDLTQEQTEKLLQFQDLTGIESMDQCRHTLEQHNWNIEAAVQDRLNEQEGVPSVFNPPPSRPLQVNTADHRIYSYVVSRPQPRGLLGWGYYLIMLPFRFTYYTILDIFRFALRFIRPDPRSRVTDPVGDIVSFMHSFEEKYGRAHPVFYQGTYSQALNDAKRELRFLLVYLHGDDHQDSDEFCRNTLCAPEVISLINTRMLFWACSTNKPEGYRVSQALRENTYPFLAMIMLKDRRMTVVGRLEGLIQPDDLINQLTFIMDANQTYLVSERLEREERNQTQVLRQQQDEAYLASLRADQEKERKKREERERKRRKEEEVQQQKLAEERRRQNLQEEKERKLECLPPEPSPDDPESVKIIFKLPNDSRVERRFHFSQSLTVIHDFLFSLKESPEKFQIEANFPRRVLPCIPSEEWPNPPTLQEAGLSHTEVLFVQDLTDE
# notes: also called RDB 2143; not shown: N-terminal Flag tag
# B2: Flag-FAF1 (other, UniProt Q9UNN5 1-650, looked up)
# chain: MASNMDREMILADFQACTGIENIDEAITLLEQNNWDLVAAINGVIPQENGILQSEYGGETIPGPAFNPASHPASAPTSSSSSAFRPVMPSRQIVERQPRMLDFRVEYRDRNVDVVLEDTCTVGEIKQILENELQIPVSKMLLKGWKTGDVEDSTVLKSLHLPKNNSLYVLTPDLPPPSSSSHAGALQESLNQNFMLIITHREVQREYNLNFSGSSTIQEVKRNVYDLTSIPVRHQLWEGWPTSATDDSMCLAESGLSYPCHRLTVGRRSSPAQTREQSEEQITDVHMVSDSDGDDFEDATEFGVDDGEVFGMASSALRKSPMMPENAENEGDALLQFTAEFSSRYGDCHPVFFIGSLEAAFQEAFYVKARDRKLLAIYLHHDESVLTNVFCSQMLCAESIVSYLSQNFITWAWDLTKDSNRARFLTMCNRHFGSVVAQTIRTQKTDQFPLFLIIMGKRSSNEVLNVIQGNTTVDELMMRLMAAMEIFTAQQQEDIKDEDEREARENVKREQDEAYRLSLEADRAKREAHEREMAEQFRLEQIRKEQEEEREAIRLSLEQALPPEPKEENAEPVSKLRIRTPSGEFLERRFLASNKLQIVFDFVASKGFPWDEYKLLSTFPRRDVTQLDPNKSLLEVKLFPQETLFLEAKE
# notes: also called RDB 2151; not shown: N-terminal Flag tag
# B3: Flag-ASPL (other, UniProt Q9BZE9 1-553, looked up)
# chain: MAAPAGGGGSAVSVLAPNGRRHTVKVTPSTVLLQVLEDTCRRQDFNPCEYDLKFQRSVLDLSLQWRFANLPNNAKLEMVPASRSREGPENMVRIALQLDDGSRLQDSFCSGQTLWELLSHFPQIRECLQHPGGATPVCVYTRDEVTGEAALRGTTLQSLGLTGGSATIRFVMKCYDPVGKTPGSLGSSASAGQAAASAPLPLESGELSRGDLSRPEDADTSGPCCEHTQEKQSTRAPAAAPFVPFSGGGQRLGGPPGPTRPLTSSSAKLPKSLSSPGGPSKPKKSKSGQDPQQEQEQERERDPQQEQERERPVDREPVDREPVVCHPDLEERLQAWPAELPDEFFELTVDDVRRRLAQLKSERKRLEEAPLVTKAFREAQIKEKLERYPKVALRVLFPDRYVLQGFFRPSETVGDLRDFVRSHLGNPELSFYLFITPPKTVLDDHTQTLFQANLFPAALVHLGAEEPAGVYLEPGLLEHAISPSAADVLVARYMSRAAGSPSPLPAPDPAPKSEPAAEEGALVPPEPIPGTAQPVKRSLGKVPKWLKLPASKR
# notes: also called RDB 2144; not shown: N-terminal Flag tag
# B4: Flag-UBXD3 (other, UniProt Q96LJ8 1-280, looked up)
# chain: MATEAPVNIAPPECSTVVSTAVDSLIWQPNSLNMHMIRPKSAKGRTRPSLQKSQGVEVCAHHIPSPPPAIPYELPSSQKPGACAPKSPNQGASDEIPELQQQVPTGASSSLNKYPVLPSINRKNLEEEAVETVAKKASSLQLSSIRALYQDETGTMKTSEEDSRARACAVERKFIVRTKKQGSSRAGNLEEPSDQEPRLLLAVRSPTGQRFVRHFRPTDDLQTIVAVAEQKNKTSYRHCSIETMEVPRRRFSDLTKSLQECRIPHKSVLGISLEDGEGWP
# notes: also called RDB 2149; not shown: N-terminal Flag tag
# B5: Flag-UBXD2 (other, UniProt Q92575 1-508, looked up)
# chain: MLWFQGAIPAAIATAKRSGAVFVVFVAGDDEQSTQMAASWEDDKVTEASSNSFVAIKIDTKSEACLQFSQIYPVVCVPSSFFIGDSGIPLEVIAGSVSADELVTRIHKVRQMHLLKSETSVANGSQSESSVSTPSASFEPNNTCENSQSRNAELCEIPPTSDTKSDTATGGESAGHATSSQEPSGCSDQRPAEDLNIRVERLTKKLEERREEKRKEEEQREIKKEIERRKTGKEMLDYKRKQEEELTKRMLEERNREKAEDRAARERIKQQIALDRAERAARFAKTKEEVEAAKAAALLAKQAEMEVKRESYARERSTVARIQFRLPDGSSFTNQFPSDAPLEEARQFAAQTVGNTYGNFSLATMFPRREFTKEDYKKKLLDLELAPSASVVLLPAGRPTASIVHSSSGDIWTLLGTVLYPFLAIWRLISNFLFSNPPPTQTSVRVTSSEPPNPASSSKSEKREPVRKRVLEKRGDDFKKEGKIYRLRTQDDGEDENNTWNGNSTQQM
# notes: also called RDB 2153; not shown: N-terminal Flag tag
# B6: Flag-SAKS1 (other, UniProt Q04323 1-297, looked up)
# chain: MAELTALESLIEMGFPRGRAEKALALTGNQGIEAAMDWLMEHEDDPDVDEPLETPLGHILGREPTSSEQGGLEGSGSAAGEGKPALSEEERQEQTKRMLELVAQKQREREEREEREALERERQRRRQGQELSAARQRLQEDEMRRAAEERRREKAEELAARQRVREKIERDKAERAKKYGGSVGSQPPPVAPEPGPVPSSPSQEPPTKREYDQCRIQVRLPDGTSLTQTFRAREQLAAVRLYVELHRGEELGGGQDPVQLLSGFPRRAFSEADMERPLQELGLVPSAVLIVAKKCPS
# notes: also called RDB 2150; not shown: N-terminal Flag tag
# B7: Flag-UBXD1 (other, UniProt Q9BZV1 1-441, looked up)
# chain: MKKFFQEFKADIKFKSAGPGQKLKESVGEKAHKEKPNQPAPRPPRQGPTNEAQMAAAAALARLEQKQSRAWGPTSQDTIRNQVRKELQAEATVSGSPEAPGTNVVSEPREEGSAHLAVPGVYFTCPLTGATLRKDQRDACIKEAILLHFSTDPVAASIMKIYTFNKDQDRVKLGVDTIAKYLDNIHLHPEEEKYRKIKLQNKVFQERINCLEGTHEFFEAIGFQKVLLPAQDQEDPEEFYVLSETTLAQPQSLERHKEQLLAAEPVRAKLDRQRRVFQPSPLASQFELPGDFFNLTAEEIKREQRLRSEAVERLSVLRTKAMREKEEQRGLRKYNYTLLRVRLPDGCLLQGTFYARERLGAVYGFVREALQSDWLPFELLASGGQKLSEDENLALNECGLVPSALLTFSWDMAVLEDIKAAGAEPDSILKPELLSAIEKLL
# notes: also called RDB 2152; not shown: N-terminal Flag tag
# B8: Flag-UBXD6 (other, UniProt O00124 1-270, looked up)
# chain: MASRGVVGIFFLSAVPLVCLELRRGIPDIGIKDFLLLCGRILLLLALLTLIISVTTSWLNSFKSPQVYLKEEEEKNEKRQKLVRKKQQEAQGEKASRYIENVLKPHQEMKLRKLEERFYQMTGEAWKLSSGHKLGGDEGTSQTSFETSNREAAKSQNLPKPLTEFPSPAEQPTCKEIPDLPEEPSQTAEEVVTVALRCPSGNVLRRRFLKSYSSQVLFDWMTRIGYHISLYSLSTSFPRRPLAVEGGQSLEDIGITVDTVLILEEKEQTN
# notes: also called Rep-8/UBXD6; RDB 2145; not shown: N-terminal Flag tag
# Target: T1, Ubiquitin conjugation factor E4 B, …
# Assay: co-IP, MudPIT MS
row,binding result,Binder
1,no binding,B1
2,no binding,B2

# Target: T2, endogenous p97 (human, UniProt P55072 2-806)
# T2 construct: also called VCP
# Assay: Flag co-IP, 293 cells, MudPIT MS
# Experimental: For immunoprecipitation experiments, the cells were lysed in buffer A (50 mM HEPES/KOH, pH 7.5; 5 mM Mg(OAc)₂; 70 mM KOAc; 0.2% Triton X-100; 10% glycerol; 0.2 mM EDTA; protease inhibitors) and incubated with anti-Flag agarose beads (Sigma) or anti-Myc sepharose beads (Covance).
# Mass spectrometrical sample analysis was performed as described previously (Graumann et al., 2004) using a high-pressure liquid chromatography pump (Agilent) in line to a LCQ DecaXP electrospray ion trap mass spectrometer (ThermoFinnigan). In brief, 2-4 mg of protein extract were incubated with anti-Flag or anti-Myc beads and the immunoprecipitated proteins were eluted with saturated urea. The eluates were then proteolitically digested using sequentially endoproteinase Lys-C and trypsin. The resulting peptide mixtures were pressure-loaded onto triphasic microcapillary columns and sample separation was achieved using a chromatography program consisting of six salt steps, each followed by an organic gradient. The eluting peptides were electrosprayed into the mass spectrometer and the column eluate was continuously analyzed. One full-range mass scan ([…]) was followed by three data-dependent tandem mass spectrometry (MS/MS) spectra. Sequence database matching was performed against the IPI human database (Kersey et al., 2004) version 3.15.1 using Sequest (Eng et al., 1994) and the results were filtered with DTASelect (Tabb et al., 2002), using the parameters indicated in Graumann et al. (2004).
sequence count,sequence coverage,spectrum count,Binder
154,78.5%,1440,B3
57,64.5%,254,B4
27,41.1%,958,B5
68,57.4%,663,B6
159,84.3%,1130,B7
48,57.6%,3090,B1
55,59.5%,212,B8
84,68.9%,539,B2
